Experimental data reported in the nanobody polyreactivity screen of Harvey et al. (2022).

Experiment: yeast display, Sf9 membrane polyspecificity reagent, FACS + sequencing; frameworks hold sequencing errors
Summary of the method: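 Galactose induction of a Saccharomyces cerevisiae BJ5465 synthetic nanobody display library ran 36–48 hours. The cells were then stained for 1 hour at 4 °C with 10% biotinylated, detergent-solubilized Sf9 membrane reagent, pulled down on streptavidin microbeads and FACS-sorted into low and high (top ~1%) gates on expression and reagent-binding fluorescence. Labels for polyreactivity follow the gate of origin.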

Question: For “QVQLVESGGGLVQAGGSLRLRCDASGRIFISYTMGWSRPPPGKERELVAGIDSSGTSTYYADSVKGRFTISRDNAKNTVYLLMNSLKPEDNADYYCNVDGYWKDTSTEMVYWGQGTQVTVSS”, which “polyreactivity (PSR sort gate)” value is on record?
Answer: low polyreactivity

Question: With “QVQLVESGGGLVQAGGSLRLRGAASGRTFPGYAMGWCRPAPGNERELVATICSADSTNYADSVMGRFTSSRDNAKNTVKLHMKSLKPEDTAVYFCAQRYGRNGAAAQYNVWYRYDYWGQGTQVTVSS” as the sequence, how does the “polyreactivity (PSR sort gate)” value read?
Answer: low polyreactivity

Question: For “QVQLVESGGGLVQAGGSLRLSAASGSTLAGNTMGWYRQAPGKERELVAAINDSGGSTYYADSVKGRFTISRDNAKNTVYLQMNSLKPEDTAVYYCNAEGSAYIEDGYDYWGQGTQVTVSS”, which “polyreactivity (PSR sort gate)” value is on record?
Answer: low polyreactivity

Question: With “QVQLVESGGGLVQAGGSLRLSCAAAGFIFWSNAMGWYRQAPGKERELVAAIRNTGSTNYADSVKGRFTISRDNAKNTVYLQMNSLKPEDTAVYYCATKPYPYYLYYYWGQGTQVTVSS” as the sequence, how does the “polyreactivity (PSR sort gate)” value read?
Answer: high polyreactivity

Question: For “QVQLVESGGGLVQAGGSLRLSCAAAGNIFSPYAMGWYIQAPGKERELVAAISYSGGSTYYADSVKGRFTISRDIAKNTFYLQMNSLKPEDTAVYYCAVVYSYYLAVLGYWDYDYWGQGTQVTVSS”, which “polyreactivity (PSR sort gate)” value is on record?
Answer: low polyreactivity

Question: Which “polyreactivity (PSR sort gate)” value does the source give for “QVQLVESGGGLVQAGGSLRLSCAAAGRISVFYTMGWYRQAPGKERVLVAVIRTSGGRTNYADSVKGRFTISRDNAKNTVYLQMNSLKPEDTAVYYWDADAVIEWTEWYSAWWYYYWGQGTQVTVSS” here?
Answer: low polyreactivity

Question: Which “polyreactivity (PSR sort gate)” value does the source give for “QVQLVESGGGLVQAGGSLRLSCAAAGRLFGPYAMGWYGQAPGKERELVASISYSGGSTYYADSVKGRFTISRDNAKNTVYLQMNSLKAEDTAVYYCAKGGYWRGYNYWGQGTQVTVSS” here?
Answer: low polyreactivity

Question: With “QVQLVESGGGLVQAGGSLRLSCAAAGRTFGDYDMGWYRQAPGKERELVAAITSDGTTYYADSVKGRFTISRDNAKNTVYLQMNSLKPEDTAVYYCAADYWYVSWYDYWGQGTQVTVSS” as the sequence, how does the “polyreactivity (PSR sort gate)” value read?
Answer: low polyreactivity

Question: Which “polyreactivity (PSR sort gate)” value does the source give for “QVQLVESGGGLVQAGGSLRLSCAAAGSIFRGYAMGWYRQEPEKERELVADISRRGGSTYYADSVKGRFTISRDNAKNTVYLQMNSLKPEDTAVYYCAKDGTGAGTYDYWGQGTQVTVSS” here?
Answer: low polyreactivity

Question: Which “polyreactivity (PSR sort gate)” value does the source give for “QVQLVESGGGLVQAGGSLRLSCAAAGSTFSSYAMVWYRQAPGKERELVAAISTSGGRTYYADSVKGRFTISRDNAKNAVFLQMNSLKPEDTAVYYCAKKGICYVRYYYWGQGTLVTVSS” here?
Answer: high polyreactivity

Question: For “QVQLVESGGGLVQAGGSLRLSCAACGFIFHFYAMGWYRQAPGKERELVASISAIGGSTYYADSVKGRFTISRDNAKNTVYLQMNSLKPEDTAVYYCATYSYRHRRYSRYDYWGQGTQVTVSS”, which “polyreactivity (PSR sort gate)” value is on record?
Answer: high polyreactivity

Question: Which “polyreactivity (PSR sort gate)” value does the source give for “QVQLVESGGGLVQAGGSLRLSCAACGFTFAYYAMGWYRQAPGKERELVATITSGGRTYYADSVKGRFTISRDNAKNTVYFQMNSLKPEDTAVYYCAGAGKGRYHFRSTMDYWGQGTQVTVSS” here?
Answer: high polyreactivity

Question: Which “polyreactivity (PSR sort gate)” value does the source give for “QVQLVESGGGLVQAGGSLRLSCAACGFTFYYYAMGWYRQAPGKERELVASISASGGITYYADSVKGRFTISRDNAKNTVYLQMNSLKPEDTAVYYCATRQGYRLYYWGQGTQVNVSS” here?
Answer: high polyreactivity

Question: For “QVQLVESGGGLVQAGGSLRLSCAACGFTIRRYAKGWYRQAPGKERELVAAITTGGSTYYADSVKGRFTISRDNAKNTVYFQMNSLKPEETAVYDCAALYPYKQYRLGYDSWGQGTQVTVSS”, which “polyreactivity (PSR sort gate)” value is on record?
Answer: high polyreactivity

Question: For “QVQLVESGGGLVQAGGSLRLSCAACGIIFVYYAMGWYRQAPGKERELVAAISSSGARTYYADSVKGRFTISRDNAKNTVYLQMNSLKPEDTAVYYCAARETRTKPIFYGYNYWGQGTQVTVSS”, which “polyreactivity (PSR sort gate)” value is on record?
Answer: high polyreactivity

Question: With “QVQLVESGGGLVQAGGSLRLSCAACGLTYNANAMGWYRQAPGKERELVAAIDWIGGSTYYADSVKGRFTISRDNAKNTVYLQMNSLKPEDTAVYYCASRSKRRNYDYWGQGTQVTVSS” as the sequence, how does the “polyreactivity (PSR sort gate)” value read?
Answer: high polyreactivity

Question: With “QVQLVESGGGLVQAGGSLRLSCAACGRIFSYNAMGWYRQAPGKERELVAAIRWRGGSTYYADSVKGRFTISRDNAKNTVYLQMNRLKPEDTAVYYCNALRYYHYDYWGQGTQVTVSS” as the sequence, how does the “polyreactivity (PSR sort gate)” value read?
Answer: high polyreactivity

Question: For “QVQLVESGGGLVQAGGSLRLSCAACGRPFTLYAMGWYRQAPGKERELVASITSGTRTYYADSVKGRFTISRDNAKNTVYLQMNSLKPEDTAVYYCAKEGYRRTLHRLYDYWGEGTQVTVSS”, which “polyreactivity (PSR sort gate)” value is on record?
Answer: low polyreactivity

Question: With “QVQLVESGGGLVQAGGSLRLSCAACGSIFRPNAMGWYRQAPGKERELVAAITWIAGGTYYADSVKGRFTISRDNAKNTVYLEMNSLKPEDTAVYYCAARWYFQTAVGRYYHYDYWGQGTQVTVSS” as the sequence, how does the “polyreactivity (PSR sort gate)” value read?
Answer: high polyreactivity

Question: Which “polyreactivity (PSR sort gate)” value does the source give for “QVQLVESGGGLVQAGGSLRLSCAACGSTFGYNAMGWYRQAPGKERELVADISWSGGTTYYADSVKGRFTISRDNAKNTVYLQMNSLKPEDTAVYYCNARYPDRPVQGWRVEVDYWGQGTQVTVSS” here?
Answer: high polyreactivity

Question: Which “polyreactivity (PSR sort gate)” value does the source give for “QVQLVESGGGLVQAGGSLRLSCAACGYSFPAYAMGWYRQAPGKERELVAAINRRGGTTYYADSVKGRFTISRDNAKNTVYLQMNSLKPEDTAVYYCARYSGLKDMDYWGQGTQVSVSS” here?
Answer: high polyreactivity

Question: Which “polyreactivity (PSR sort gate)” value does the source give for “QVQLVESGGGLVQAGGSLRLSCAAPGIIFVDYTMGWYRQAPGKERELVAAIDWSGGSTYYADSVKGRFTISRDNAKNTVYLQMNSLKPEDTAVYYCAALKTTYIYSSDFDYWGQGTQVTVSS” here?
Answer: low polyreactivity

Question: With “QVQLVESGGGLVQAGGSLRLSCAAPGSIFPRYAMGWYRPAPGKERELVAAISRSGGSTYYADSVKGRFTISRDNAKNTVYLQMNSLKPEDTAVYYCATDKVSHRRYDYWGQGTQVTVSS” as the sequence, how does the “polyreactivity (PSR sort gate)” value read?
Answer: high polyreactivity

Question: Which “polyreactivity (PSR sort gate)” value does the source give for “QVQLVESGGGLVQAGGSLRLSCAAPGSTFQFNVMGWYRQAPGKERELVAAITSGASTYYADSVKGRFTISRDNAKNTVYLQMYSLEPEDTAVYYCAVDYSFLYDYVQRYYYWGQGTQVTVSS” here?
Answer: high polyreactivity

Question: Which “polyreactivity (PSR sort gate)” value does the source give for “QVQLVESGGGLVQAGGSLRLSCAASACTFNVNAMGWYRQEAGKERELVAAITNGGITNYADSVKGRFTISRDNAKNTVYLQMNSLKPEDTAVYDCAARTIYKTQSPRPFRRGYWGQGTQVTVSS” here?
Answer: high polyreactivity

Question: With “QVQLVESGGGLVQAGGSLRLSCAASAFIFGRYVMGWYIQAPGKEREVVAAISWSGGRTYYADSVKGRFTISRDNAKNTVYLQMNSLKPEDTAVYYCAAESSYPSYDGYYWGQGTQVTVSS” as the sequence, how does the “polyreactivity (PSR sort gate)” value read?
Answer: high polyreactivity

Question: For “QVQLVESGGGLVQAGGSLRLSCAASAFILASYPMGWNRQAPGKERELVAAITKRGGSTYYADSVKGRFTISRDNAKNTVFLQMNSLKPEDTAVYFCATYSSTVLPRWKYYYWGQGTQVPVSS”, which “polyreactivity (PSR sort gate)” value is on record?
Answer: high polyreactivity

Question: For “QVQLVESGGGLVQAGGSLRLSCAASAFILDWNTIGWYRQAPRKEREFVAAITSRGGDTYYADSVKGRFTISRDNAKNTDYFQMNSMKPEDTAVYYWNKGFKLWPRYGYDYWGLGTQVTVSS”, which “polyreactivity (PSR sort gate)” value is on record?
Answer: low polyreactivity

Question: With “QVQLVESGGGLVQAGGSLRLSCAASAFILYRNAMGWYRQAPGKERELVAAITWNGDRTHYADSVMGRFTISRDNAKNTVYLQMNSLKPEDNAVYYCAAYYVSVRGGRYRNKWYDHWGQGTQVTVSS” as the sequence, how does the “polyreactivity (PSR sort gate)” value read?
Answer: high polyreactivity

Question: For “QVQLVESGGGLVQAGGSLRLSCAASALTFGSNAMGWYRQAPGKERELVAAISRSGGTTYYADSVKGRFTISRDNAKNTVYLQMNSLKPEDTAVYYCATRPYSPWRHYYWGQGTQVTVSS”, which “polyreactivity (PSR sort gate)” value is on record?
Answer: high polyreactivity

Question: Which “polyreactivity (PSR sort gate)” value does the source give for “QVQLVESGGGLVQAGGSLRLSCAASARIFIVNAMGWYRQAPGKDREFVAANTSRGGITYYADSVKGRFTISRDNAKNTVYLQMNSLKPEDTAVYYCAAGYITCGSGNWVVTPYDYWGQGTQVTVSS” here?
Answer: high polyreactivity

Question: Which “polyreactivity (PSR sort gate)” value does the source give for “QVQLVESGGGLVQAGGSLRLSCAASARIFTAYAMGWYRQAPGKERELVASISTSGGRTYYADSVKGRFTISRDNAKNTVYLQINSLKPEDTAVYYFAADFESYSRYYDGYDYWGQGTQVTVSS” here?
Answer: high polyreactivity

Question: With “QVQLVESGGGLVQAGGSLRLSCAASARIVRKYTMGWFRQAPGKERELVAAISRNGGDTYYADSVKGRFTISRDNAKNTVYLQMHSLKPEDTAVYYCNARTPTDSTHFDYWGQGTQVTVSS” as the sequence, how does the “polyreactivity (PSR sort gate)” value read?
Answer: low polyreactivity

Question: For “QVQLVESGGGLVQAGGSLRLSCAASARTFRQYAMGWYRQSPGKERELVAAIRTNGGRTYYADSVKGRFTISRDNAKNTVYLQMNSLKPEDTAVYYCAVRPRPGYYYWGQGTQVTVSS”, which “polyreactivity (PSR sort gate)” value is on record?
Answer: high polyreactivity

Question: Which “polyreactivity (PSR sort gate)” value does the source give for “QVQLVESGGGLVQAGGSLRLSCAASARTFYYYAMGWYRQAPGKERELVAAISWSGGRTYYADSVKGRFTISRDNAKNTVYLQMNSLKPEDTAVYYFAVPYPAEGYGGDYWGQGTQVTVSS” here?
Answer: low polyreactivity

Question: With “QVQLVESGGGLVQAGGSLRLSCAASASIFDDNAMGWYRQAPGKERELVAGISRGGSTNYADSVKGRFTISRDNAKNTVYLQMNSLKPEDTAVYYCNKRYKPSWTTYDYWGQGTQVTVSS” as the sequence, how does the “polyreactivity (PSR sort gate)” value read?
Answer: low polyreactivity

Question: For “QVQLVESGGGLVQAGGSLRLSCAASASIFDGYAMGWYRQAPGKERELVAAISKGGTRTYYADSVKGRFTISRDNAKNTVYLQMNSLKPEDSSVYYCNAYYRREPDDGDYDYWGQGTQVTVSS”, which “polyreactivity (PSR sort gate)” value is on record?
Answer: high polyreactivity

Question: Which “polyreactivity (PSR sort gate)” value does the source give for “QVQLVESGGGLVQAGGSLRLSCAASASTFWFNVMGWYRQATGKETELDAVITWTGGSTSYADSVKGRFTISRDNAKNTVYLQMNSLKPEDTAVYYCATPVKFGGVPYRYGYWGQGTQVTVSS” here?
Answer: low polyreactivity

Question: With “QVQLVESGGGLVQAGGSLRLSCAASAYILFKYAKGSYRQAPGKERELVAGITRGGTTYYADSVKGRFTISRDNAKNTVYLQMNSLKPEDTAVYYCAVAITFSSYKFYYWGQGTQVTVSS” as the sequence, how does the “polyreactivity (PSR sort gate)” value read?
Answer: high polyreactivity

Question: With “QVQLVESGGGLVQAGGSLRLSCAASAYNFDGYAMGWYRQAPGKERELVAAINSGGGTYYADSVKGRFTISRDNAKNTVYLQMNSLKPEDTAVYYCAKYTYDYWGQGTQVTVSS” as the sequence, how does the “polyreactivity (PSR sort gate)” value read?
Answer: low polyreactivity

Question: Which “polyreactivity (PSR sort gate)” value does the source give for “QVQLVESGGGLVQAGGSLRLSCAASGATFAQYAMGWYRQAPGKERELVAAISRGGGSTYCADSVKGRFTISRDNAKNTVYLQMNSLKPEDTAVYYCAADPRYRVTLGFDYWGQGSQVTVSS” here?
Answer: high polyreactivity

Question: With “QVQLVESGGGLVQAGGSLRLSCAASGATFYVYAMGWYRQAPGKERELVAAIRYRGGTTHYADSVKGRFTISRDNAKNTVYVQMNSLKPEDTAVYYCAADGYVYRSGRRYDYWGQGTQVTVSS” as the sequence, how does the “polyreactivity (PSR sort gate)” value read?
Answer: high polyreactivity

Question: Which “polyreactivity (PSR sort gate)” value does the source give for “QVQLVESGGGLVQAGGSLRLSCAASGCTFKYYTMGWYRQAPGKERELGAAINWRGGTTYYADSVKGRFTISRDNAKNTVYLQMNSLKPEDTAVYYSAKVNGPYRGGGYSRFDYWGQGTQVTVST” here?
Answer: high polyreactivity
